The text below walks through data of article PMC4951694.

Experiment in all cases: ITC; 10 μM β3 peptide in the sample cell titrated with αIIb peptide; bicelles of 43 mM DHPC, 17 mM POPC, 25 mM NaH2PO4/Na2HPO4 pH 7.4, 28 °C; stoichiometry fixed at 1:1
For orientation: ITC needs no label: the signal is the heat of the interaction.

In experiment [1] the target is integrin β3(A711P) TM peptide (human) (UniProt P05106).
In experiment [2] the target is integrin β3 TM peptide (human) (UniProt P05106).
Experiment [3] addresses integrin β3(L712A) TM peptide (human) (UniProt P05106).
Experiment [4] deals with integrin β3(W715Y) TM peptide (human) (UniProt P05106).
Experiment [5] has as its target integrin β3(A711P/W715Y) TM peptide (human) (UniProt P05106).
Experiment [6] concerns the target integrin β3(A711P/L712A) TM peptide (human) (UniProt P05106).

In experiment [1], “integrin αIIb(R995A) TM peptide (from UniProt P08514 989-1029)” gave a KXY of 4000 and a dH of -5.6 kcal/mol.
Consider “integrin αIIb(G972A) TM peptide (from UniProt P08514 989-1029)”, for which the KXY in experiment [1] was found to be 5500; in experiment [2], 1080. Besides, the dH in experiment [1] was -16.2 kcal/mol; in experiment [2], -14.2 kcal/mol.
For the substance “integrin αIIb TM peptide (from UniProt P08514 989-1029)”, the KXY amounted to 12700 in experiment [1]; 1900 in experiment [3]; 1300 in experiment [4]; 2200 in experiment [5]; 4200 in experiment [6]. Moreover, the dH in experiment [1] was -16.9 kcal/mol; in experiment [3] it was -12 kcal/mol; in experiment [4], -14.2 kcal/mol; in experiment [5], -14.4 kcal/mol; in experiment [6], -12.8 kcal/mol.
